# Data as given in article PMC9482650, “Quantitative fragmentomics allow affinity mapping of interactomes” (Nature Communications, 2022).
# T1: TIAM2, Q8IVF5
# T1 sequence (Q8IVF5 885-986, limits assumed, looked up): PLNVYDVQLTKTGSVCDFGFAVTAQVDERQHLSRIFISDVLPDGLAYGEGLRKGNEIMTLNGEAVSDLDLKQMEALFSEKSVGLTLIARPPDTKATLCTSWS
# T2: FRMPD1, Q5SYB0
# T2 sequence (Q5SYB0 52-145, limits assumed, looked up): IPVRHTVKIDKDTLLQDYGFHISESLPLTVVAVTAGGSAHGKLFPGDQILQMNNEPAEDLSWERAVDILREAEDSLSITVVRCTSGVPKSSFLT
# T3: CARD11, Q9BXL7
# T3 sequence (Q9BXL7 662-765, limits assumed, looked up): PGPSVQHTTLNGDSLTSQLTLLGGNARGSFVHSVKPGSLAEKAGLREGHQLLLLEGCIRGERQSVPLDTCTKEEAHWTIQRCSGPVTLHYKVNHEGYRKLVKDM
# T4: NHERF3_3, Q5T2W1
# T4 sequence (Q5T2W1 238-333, limits assumed, looked up): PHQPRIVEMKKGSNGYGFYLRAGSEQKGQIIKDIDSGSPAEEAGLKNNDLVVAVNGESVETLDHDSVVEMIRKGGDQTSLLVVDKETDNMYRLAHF
# T5: LNX2_2, Q8N448
# T5 sequence (Q8N448 334-432, limits assumed, looked up): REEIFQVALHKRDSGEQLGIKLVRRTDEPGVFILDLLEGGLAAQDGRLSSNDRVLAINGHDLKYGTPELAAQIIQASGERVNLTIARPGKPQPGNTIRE
# T6: APBA2_2, Q99767
# T6 sequence (Q99767 654-744, limits assumed, looked up): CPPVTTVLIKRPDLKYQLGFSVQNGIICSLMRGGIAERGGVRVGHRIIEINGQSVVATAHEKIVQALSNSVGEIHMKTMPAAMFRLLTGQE
# T7: SNTG1, Q9NSN8
# T7 sequence (Q9NSN8 52-150, limits assumed, looked up): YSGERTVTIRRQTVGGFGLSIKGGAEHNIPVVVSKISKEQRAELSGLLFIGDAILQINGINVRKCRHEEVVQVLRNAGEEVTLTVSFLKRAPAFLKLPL
# T8: MPP7, Q5T2T1
# T8 sequence (Q5T2T1 134-230, limits assumed, looked up): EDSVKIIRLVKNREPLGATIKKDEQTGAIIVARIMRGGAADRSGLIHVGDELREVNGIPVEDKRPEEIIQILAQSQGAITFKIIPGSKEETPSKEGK
# T9: DVL3, Q92997
# T9 sequence (Q92997 244-331, limits assumed, looked up): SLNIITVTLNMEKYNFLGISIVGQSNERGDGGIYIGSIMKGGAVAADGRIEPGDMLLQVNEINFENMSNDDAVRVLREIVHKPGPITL
# T10: GRIP1_7, Q9Y3R0
# T10 sequence (Q9Y3R0 999-1096, limits assumed, looked up): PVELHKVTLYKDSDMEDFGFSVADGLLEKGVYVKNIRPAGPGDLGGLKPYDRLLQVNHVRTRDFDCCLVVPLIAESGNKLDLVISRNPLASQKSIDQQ
# T11: PDZD7_3, Q9H5P4
# T11 sequence (Q9H5P4 857-944, limits assumed, looked up): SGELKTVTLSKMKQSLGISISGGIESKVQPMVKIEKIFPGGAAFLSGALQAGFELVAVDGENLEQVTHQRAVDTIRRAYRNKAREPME
# T12: APBA2_1, Q99767
# T12 sequence (Q99767 563-664, limits assumed, looked up): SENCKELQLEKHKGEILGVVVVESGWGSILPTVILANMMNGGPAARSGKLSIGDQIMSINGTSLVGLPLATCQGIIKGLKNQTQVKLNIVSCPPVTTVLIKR
# T13: HTRA4, P83105
# T13 sequence (P83105 378-476, limits assumed, looked up): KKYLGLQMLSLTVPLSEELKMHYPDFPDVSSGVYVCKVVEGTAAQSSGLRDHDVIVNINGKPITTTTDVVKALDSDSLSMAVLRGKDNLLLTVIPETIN
# T14: MPDZ_12, O75970
# T14 sequence (O75970 1857-1958, limits assumed, looked up): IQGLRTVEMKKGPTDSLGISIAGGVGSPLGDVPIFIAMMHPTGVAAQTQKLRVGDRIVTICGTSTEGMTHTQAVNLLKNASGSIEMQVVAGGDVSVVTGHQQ
# T15: MPP2, Q14168
# T15 sequence (Q14168 180-250, limits assumed, looked up): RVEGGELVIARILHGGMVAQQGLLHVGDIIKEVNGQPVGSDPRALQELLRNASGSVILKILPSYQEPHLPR
# Molecular target: T1, TIAM2, Q8IVF5
# Experiment: holdup assay
# Design: key: below the threshold = too weak to quantify, mostly under pKd 3.1 to 4
# Conditions: plain residues with an end cap or a label only (N-terminal biotin on a linker: ado-ado)
row,Binder,pKd
1,"NTALVESEDL [PALLS, Q8WX93;Q8WX93-1]",below the threshold
2,"HDDYFYHDEL [RCN2, Q14257]",below the threshold

# Molecular target: T2, FRMPD1, Q5SYB0
# Experiment: holdup assay
# Design: key: below the threshold = too weak to quantify, mostly under pKd 3.1 to 4
# Conditions: plain residues with an end cap or a label only (N-terminal biotin on a linker: ado-ado)
row,Binder,pKd
1,"NTALVESEDL [PALLS, Q8WX93;Q8WX93-1]",below the threshold
2,"HDDYFYHDEL [RCN2, Q14257]",below the threshold

# Molecular target: T3, CARD11, Q9BXL7
# Experiment: holdup assay
# Design: key: below the threshold = too weak to quantify, mostly under pKd 3.1 to 4
# Conditions: plain residues with an end cap or a label only (N-terminal biotin on a linker: ado-ado)
row,Binder,pKd
1,"NTALVESEDL [PALLS, Q8WX93;Q8WX93-1]",below the threshold
2,"HDDYFYHDEL [RCN2, Q14257]",below the threshold

# Molecular target: T4, NHERF3_3, Q5T2W1
# Experiment: holdup assay
# Design: key: below the threshold = too weak to quantify, mostly under pKd 3.1 to 4
# Conditions: plain residues with an end cap or a label only (N-terminal biotin on a linker: ado-ado)
row,Binder,pKd
1,"NTALVESEDL [PALLS, Q8WX93;Q8WX93-1]",below the threshold
2,"HDDYFYHDEL [RCN2, Q14257]",below the threshold

# Molecular target: TJP1_2, Q07157
# Sequence (Q07157 181-274): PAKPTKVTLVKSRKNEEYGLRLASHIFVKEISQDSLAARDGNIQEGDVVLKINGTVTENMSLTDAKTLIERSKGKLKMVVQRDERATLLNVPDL
# Experiment: holdup assay
# Design: key: below the threshold = too weak to quantify, mostly under pKd 3.1 to 4
# Conditions: plain residues with an end cap or a label only (N-terminal biotin on a linker: ado-ado)
row,Binder,pKd
1,"NTALVESEDL [PALLS, Q8WX93;Q8WX93-1]",below the threshold
2,"HDDYFYHDEL [RCN2, Q14257]",below the threshold

# Molecular target: Inadl_3, Q8NI35
# Sequence (Q8NI35 359-469): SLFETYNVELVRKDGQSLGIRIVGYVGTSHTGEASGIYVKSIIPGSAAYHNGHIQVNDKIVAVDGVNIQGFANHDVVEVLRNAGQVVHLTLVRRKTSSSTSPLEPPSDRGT
# Experiment: holdup assay
# Design: key: below the threshold = too weak to quantify, mostly under pKd 3.1 to 4
# Conditions: plain residues with an end cap or a label only (N-terminal biotin on a linker: ado-ado)
row,Binder,pKd
1,"NTALVESEDL [PALLS, Q8WX93;Q8WX93-1]",below the threshold
2,"HDDYFYHDEL [RCN2, Q14257]",3.85

# Molecular target: T5, LNX2_2, Q8N448
# Experiment: holdup assay
# Design: key: below the threshold = too weak to quantify, mostly under pKd 3.1 to 4
# Conditions: plain residues with an end cap or a label only (N-terminal biotin on a linker: ado-ado)
row,Binder,pKd
1,"NTALVESEDL [PALLS, Q8WX93;Q8WX93-1]",below the threshold
2,"HDDYFYHDEL [RCN2, Q14257]",below the threshold

# Molecular target: GRIP2_3, Q9C0E4
# Sequence (Q9C0E4 238-339): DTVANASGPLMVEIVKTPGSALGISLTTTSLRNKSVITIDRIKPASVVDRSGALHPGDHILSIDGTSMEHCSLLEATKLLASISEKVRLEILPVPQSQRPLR
# Experiment: holdup assay
# Design: key: below the threshold = too weak to quantify, mostly under pKd 3.1 to 4
# Conditions: plain residues with an end cap or a label only (N-terminal biotin on a linker: ado-ado)
row,Binder,pKd
1,"NTALVESEDL [PALLS, Q8WX93;Q8WX93-1]",below the threshold
2,"HDDYFYHDEL [RCN2, Q14257]",below the threshold

# Molecular target: T6, APBA2_2, Q99767
# Experiment: holdup assay
# Design: key: below the threshold = too weak to quantify, mostly under pKd 3.1 to 4
# Conditions: plain residues with an end cap or a label only (N-terminal biotin on a linker: ado-ado)
row,Binder,pKd
1,"NTALVESEDL [PALLS, Q8WX93;Q8WX93-1]",below the threshold
2,"HDDYFYHDEL [RCN2, Q14257]",below the threshold

# Molecular target: T7, SNTG1, Q9NSN8
# Experiment: holdup assay
# Design: key: below the threshold = too weak to quantify, mostly under pKd 3.1 to 4
# Conditions: plain residues with an end cap or a label only (N-terminal biotin on a linker: ado-ado)
row,Binder,pKd
1,"NTALVESEDL [PALLS, Q8WX93;Q8WX93-1]",below the threshold
2,"HDDYFYHDEL [RCN2, Q14257]",below the threshold

# Molecular target: T8, MPP7, Q5T2T1
# Experiment: holdup assay
# Design: key: below the threshold = too weak to quantify, mostly under pKd 3.1 to 4
# Conditions: plain residues with an end cap or a label only (N-terminal biotin on a linker: ado-ado)
row,Binder,pKd
1,"NTALVESEDL [PALLS, Q8WX93;Q8WX93-1]",below the threshold
2,"HDDYFYHDEL [RCN2, Q14257]",below the threshold

# Molecular target: T9, DVL3, Q92997
# Experiment: holdup assay
# Design: key: below the threshold = too weak to quantify, mostly under pKd 3.1 to 4
# Conditions: plain residues with an end cap or a label only (N-terminal biotin on a linker: ado-ado)
row,Binder,pKd
1,"NTALVESEDL [PALLS, Q8WX93;Q8WX93-1]",below the threshold
2,"HDDYFYHDEL [RCN2, Q14257]",below the threshold

# Molecular target: LIMK2, P53671
# Sequence (P53671 143-248): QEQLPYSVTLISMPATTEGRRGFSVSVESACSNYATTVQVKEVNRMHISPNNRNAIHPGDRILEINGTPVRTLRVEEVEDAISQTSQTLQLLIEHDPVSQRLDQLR
# Experiment: holdup assay
# Design: key: below the threshold = too weak to quantify, mostly under pKd 3.1 to 4
# Conditions: plain residues with an end cap or a label only (N-terminal biotin on a linker: ado-ado)
row,Binder,pKd
1,"NTALVESEDL [PALLS, Q8WX93;Q8WX93-1]",below the threshold
2,"HDDYFYHDEL [RCN2, Q14257]",below the threshold

# Molecular target: ARHGEF12, Q9NZN5-2
# Sequence (Q9NZN5 other isoform, or with tags, fused parts or gaps): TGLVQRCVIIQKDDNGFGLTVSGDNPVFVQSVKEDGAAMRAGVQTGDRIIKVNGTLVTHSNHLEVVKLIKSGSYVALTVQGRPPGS
# Experiment: holdup assay
# Design: key: below the threshold = too weak to quantify, mostly under pKd 3.1 to 4
# Conditions: plain residues with an end cap or a label only (N-terminal biotin on a linker: ado-ado)
row,Binder,pKd
1,"NTALVESEDL [PALLS, Q8WX93;Q8WX93-1]",below the threshold
2,"HDDYFYHDEL [RCN2, Q14257]",below the threshold

# Molecular target: T10, GRIP1_7, Q9Y3R0
# Experiment: holdup assay
# Design: key: below the threshold = too weak to quantify, mostly under pKd 3.1 to 4
# Conditions: plain residues with an end cap or a label only (N-terminal biotin on a linker: ado-ado)
row,Binder,pKd
1,"NTALVESEDL [PALLS, Q8WX93;Q8WX93-1]",below the threshold
2,"HDDYFYHDEL [RCN2, Q14257]",below the threshold

# Molecular target: AHNAK1, Q09666
# Sequence (Q09666 4-100): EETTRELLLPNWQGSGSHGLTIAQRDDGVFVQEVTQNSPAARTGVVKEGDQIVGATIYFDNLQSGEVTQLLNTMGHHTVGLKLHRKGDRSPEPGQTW
# Experiment: holdup assay
# Design: key: below the threshold = too weak to quantify, mostly under pKd 3.1 to 4
# Conditions: plain residues with an end cap or a label only (N-terminal biotin on a linker: ado-ado)
row,Binder,pKd
1,"NTALVESEDL [PALLS, Q8WX93;Q8WX93-1]",below the threshold
2,"HDDYFYHDEL [RCN2, Q14257]",below the threshold

# Molecular target: T11, PDZD7_3, Q9H5P4
# Experiment: holdup assay
# Design: key: below the threshold = too weak to quantify, mostly under pKd 3.1 to 4
# Conditions: plain residues with an end cap or a label only (N-terminal biotin on a linker: ado-ado)
row,Binder,pKd
1,"NTALVESEDL [PALLS, Q8WX93;Q8WX93-1]",below the threshold
2,"HDDYFYHDEL [RCN2, Q14257]",below the threshold

# Molecular target: T12, APBA2_1, Q99767
# Experiment: holdup assay
# Design: key: below the threshold = too weak to quantify, mostly under pKd 3.1 to 4
# Conditions: plain residues with an end cap or a label only (N-terminal biotin on a linker: ado-ado)
row,Binder,pKd
1,"NTALVESEDL [PALLS, Q8WX93;Q8WX93-1]",below the threshold
2,"HDDYFYHDEL [RCN2, Q14257]",below the threshold

# Molecular target: SCRIB_1, Q14160
# Sequence (Q14160 718-814): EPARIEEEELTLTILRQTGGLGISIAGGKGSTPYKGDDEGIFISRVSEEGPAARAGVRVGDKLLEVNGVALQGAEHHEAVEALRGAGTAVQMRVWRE
# Experiment: holdup assay
# Design: key: below the threshold = too weak to quantify, mostly under pKd 3.1 to 4
# Conditions: plain residues with an end cap or a label only (N-terminal biotin on a linker: ado-ado)
row,Binder,pKd
1,"NTALVESEDL [PALLS, Q8WX93;Q8WX93-1]",below the threshold
2,"HDDYFYHDEL [RCN2, Q14257]",below the threshold

# Molecular target: T13, HTRA4, P83105
# Experiment: holdup assay
# Design: key: below the threshold = too weak to quantify, mostly under pKd 3.1 to 4
# Conditions: plain residues with an end cap or a label only (N-terminal biotin on a linker: ado-ado)
row,Binder,pKd
1,"NTALVESEDL [PALLS, Q8WX93;Q8WX93-1]",below the threshold
2,"HDDYFYHDEL [RCN2, Q14257]",below the threshold

# Molecular target: T14, MPDZ_12, O75970
# Experiment: holdup assay
# Design: key: below the threshold = too weak to quantify, mostly under pKd 3.1 to 4
# Conditions: plain residues with an end cap or a label only (N-terminal biotin on a linker: ado-ado)
row,Binder,pKd
1,"NTALVESEDL [PALLS, Q8WX93;Q8WX93-1]",below the threshold
2,"HDDYFYHDEL [RCN2, Q14257]",below the threshold

# Molecular target: MAST2, Q6P0Q8
# Sequence (Q6P0Q8 1099-1202): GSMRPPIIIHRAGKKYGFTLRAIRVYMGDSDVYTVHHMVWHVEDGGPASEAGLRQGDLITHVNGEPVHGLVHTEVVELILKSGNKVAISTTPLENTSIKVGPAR
# Experiment: holdup assay
# Design: key: below the threshold = too weak to quantify, mostly under pKd 3.1 to 4
# Conditions: plain residues with an end cap or a label only (N-terminal biotin on a linker: ado-ado)
row,Binder,pKd
1,"NTALVESEDL [PALLS, Q8WX93;Q8WX93-1]",5.15
2,"HDDYFYHDEL [RCN2, Q14257]",4.85

# Molecular target: T15, MPP2, Q14168
# Experiment: holdup assay
# Design: key: below the threshold = too weak to quantify, mostly under pKd 3.1 to 4
# Conditions: plain residues with an end cap or a label only (N-terminal biotin on a linker: ado-ado)
row,Binder,pKd
1,"NTALVESEDL [PALLS, Q8WX93;Q8WX93-1]",below the threshold
2,"HDDYFYHDEL [RCN2, Q14257]",below the threshold
